# B1: anti-RAS scFv33 (scFv)
# chain: QVQLVEAGGGLVQPGGSLRLSCAASGFSFSTFSMNWVRQAPGKGLEWVSYISSSGRTIYYADSVKGRFTISRDNAKNSLYLQMNSLRDEDTAVYYCARGRFFDYWGQGTLVTVSSGGGGSGGGGSGGGGSDIVMTQSPSFLSASVGDRVTITCRASQSISRYLNWYQQKPGKAPKLLIYAASSLQSGVPSRFSGSGSGTDFTLTISSLQPEDFAIYYCQQSYSTLLTFGGGTKLEIKR
# Tests used:
# [1] = biological target: RAS antigen of the BIAcore measurements; assay: SPR, BIAcore 2000
# [2] = biological target: RAS antigen of the BIAcore measurements; assay: SPR, BIAcore 2000; Kd = koff/kon
binder,measurement,setting,value
B1,koff,[1],0.00113 s⁻¹
same,kon,[1],176000 M⁻¹ s⁻¹
same,Kd,[2],9.97 nM
